Data on eight molecules can be found in publication PMC10279700, “Structural insights into regulation of the PEAK3 pseudokinase scaffold by 14-3-3” (Nature Communications, 2023).

For orientation: stoichiometry N means the number of molecules, sites or subunits per partner or assembly.

First the molecules themselves.
B1: 14-3-3β (natural protein, human (endogenous in Expi293F), UniProt P31946 1-246, looked up)
chain: MTMDKSELVQKAKLAEQAERYDDMAAAMKAVTEQGHELSNEERNLLSVAYKNVVGARRSSWRVISSIEQKTERNEKKQQMGKEYREKIEAELQDICNDVLELLDKYLIPNATQPESKVFYLKMKGDYFRYLSEVASGDNKQTTVSNSQQAYQEAFEISKKEMQPTHPIRLGLALNFSVFYYEILNSPEKACSLAKTAFDEAIAELDTLNEESYKDSTLIMQLLRDNLTLWTSENQGDEGDAGEGEN
notes: 14-3-3 protein beta, human; residues 3-232 modelled in the cryo-EM structure; also called 14-3-3 beta; β isoform; source: endogenous, Expi293F, co-purified with PEAK3-1xFLAG
B2: FLAG-tagged WT PEAK3, Q6ZS72 S69A (protein)
chain: MSSPEPPTEPPEPDNPTWSTQPTYSNLGQIRAHLLPSKACRLRTPGSLSTNPEPLPPPLPKKILTRTQALPTRRTLHPSSIQVQPPRRPFLGSHSVDKSQAAVGPACLPAELTFGPADAPLGLSLRDLHSPEAVHTALAARQLQGLRTIYARLRARLMGGHPGPCHPGHSFRLLDSSPCAESGDALYYRVVRAHEDAWHILVAKVPKPGADVPHPWGLELQASLSPHFNLQGLCGLVPEGTLPGAPWRGAVALAAEVPERTVAQWLAEACTQPPEEFVWAVALLLLQLSAALKFLEAWGAALVELRPENLLLVAPRGCATTGPPRLLLTDFGRVCLQPPGPPGSPGPHAPQLGSLLRALLSLAAPSTTPLAAGLELLAAQLTRLRPSASRTRGALQALLWGPGPELRGRGAPLGPWLRALGPWLRVRRGLLVLRLAERAAGGEAPSLEDWLCCEYLAEATESSMGQALALLWD
B3: FLAG-tagged full-length human PEAK3 (PEAK3-1xFLAG) (natural protein, UniProt Q6ZS72 1-473, looked up)
chain: B2 chain with A69S
modifications: phosphoserine at 69
notes: PEAK3 pseudokinase (C19orf35), human, gene synthesized by GenScript; residues modelled: chain A 128-406, 419-473; chain B 130-406, 415-472; N-terminal peptides chain E 66-73 and chain P 66-72; Purifies as a homodimer, alone or in complex with an endogenous 14-3-3 heterodimer; also called C19orf35; PEAK3 homodimer; source: Expi293F, transfected, purified (G1 Flag resin, FLAG peptide elution, …)
B4: FLAG-tagged WT PEAK3, Q6ZS72 K293A (protein)
chain: B2 chain with A69S, K293A
B5: FLAG-tagged WT PEAK3, Q6ZS72 K293A; W298A (protein)
chain: B2 chain with A69S, K293A, W298A
B6: FLAG-tagged WT PEAK3, Q6ZS72 W298A (protein)
chain: B2 chain with A69S, W298A
B7: FLAG-tagged WT PEAK3, Q6ZS72 S225A (protein)
chain: B2 chain with A69S, S225A

In series [1] the target is FLAG-tagged PEAK3 R147A (human) (UniProt Q6ZS72). The series can be described thus: co-IP; FLAG-tagged PEAK3 variants transiently expressed in HEK293; anti-FLAG/protein A beads overnight at 4 °C; endogenous 14-3-3 detected with anti-pan 14-3-3 by Western blot; also after 1 h of 0.1% DMSO or PKD inhibitors CRT0066101 or CID755673 (dose-dependent decrease, not abolished). (In general: In western blotting, separated proteins are transferred to a membrane and probed.)

The target in series [2] is B3. The series can be described thus: cryo-EM structure; PEAK3/14-3-3 complex co-purified from Expi293F (FLAG affinity, SEC), 7 uM, 0.1% n-Octyl-β-D-glucoside; 169,563 particles, C1, 3.1 Å. As to conditions: both partners purified.
The target of series [3] is T1, endogenous 14-3-3, P62258.
T1 chain: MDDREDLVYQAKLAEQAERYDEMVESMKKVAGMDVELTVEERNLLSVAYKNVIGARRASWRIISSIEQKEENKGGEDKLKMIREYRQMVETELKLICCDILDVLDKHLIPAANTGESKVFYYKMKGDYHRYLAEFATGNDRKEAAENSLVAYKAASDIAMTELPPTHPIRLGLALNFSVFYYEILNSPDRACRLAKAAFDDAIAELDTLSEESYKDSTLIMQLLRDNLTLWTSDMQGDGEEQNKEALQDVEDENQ
The series can be described thus: co-immunoprecipitation, quantified Western blot. The conditions noted are these: chain shown with the change; transiently expressed in HEK293 cells; 3 independent experiments; parent: est. 100; read off a plot.

Series [4] deals with the molecule itself. The series is described as follows: cryo-EM structure; PEAK3/14-3-3 complex co-purified from Expi293F (FLAG affinity, SEC), 7 uM, 0.1% n-Octyl-β-D-glucoside; 169,563 particles, C1, 3.1 Å.

Numbering of substitutions follows the chain as printed. In names and notes the source's numbering stands.

The molecule “endogenous 14-3-3 (from UniProt P62258 1-255) (FLAG-tagged variant transiently expressed in HEK293)” showed a reduction in 14-3-3 association relative to WT PEAK3 in series [1] of 75%.
As to B1, the binding result in series [2] is given as “binds”.
Regarding B2, the percent of parent in series [3] came to 0.
In the case of B3, the “stoichiometry N” value in series [4] stood at 2.
As for B4, the percent of parent in series [3] came out at 62.
The same measure, in the same setting: in the case of B5 it was 43.
For the molecule B6, the percent of parent in series [3] amounted to 57.
For the molecule B7, the percent of parent in series [3] amounted to 82.
